We go through one substance from publication PMC3903627.

The assay concerns the target Luciferase-ArgBP2 P1 and EYFP-ArgBP2 P1 (BRET pair). The experiment in a line: BRET. As to conditions: HEK293T cells, one representative experiment, read off a plot.

“Luciferase-ArgBP2 WT and EYFP-ArgBP2 WT (BRET pair) P497A; P500A”: the response is, setting by setting: (0.10 µg YFP fused protein, parent: est. 510) 190 mBu; (0.20 µg YFP fused protein, parent: est. 670) 310 mBu; (0.30 µg YFP fused protein, parent: est. 740) 390 mBu; (0.40 µg YFP fused protein, parent: est. 790) 490 mBu; (0.50 µg YFP fused protein, parent: est. 790) 570 mBu.
